# Experimental data: patent US20230220042A1 (SHANGHAI JIAO TONG UNIVERSITY SCHOOL OF MEDICINE, published 2023)
# T1: FcγRIIA^131H (human, UniProt P12318 34-217, biotin-labeled)
# T1 construct: extracellular domain; Bought protein; also called RIIAH
# T1 sequence (looked up): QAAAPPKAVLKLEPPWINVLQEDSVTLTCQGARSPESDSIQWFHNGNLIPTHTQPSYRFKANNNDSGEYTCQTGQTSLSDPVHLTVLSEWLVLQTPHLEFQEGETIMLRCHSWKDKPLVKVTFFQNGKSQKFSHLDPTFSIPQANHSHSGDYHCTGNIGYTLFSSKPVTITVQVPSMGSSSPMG
# T2: FcγRIIA^131R (human, UniProt P12318 34-217, biotin-labeled)
# T2 construct: extracellular domain; Bought protein; also called RIIAR
# T2 sequence (looked up): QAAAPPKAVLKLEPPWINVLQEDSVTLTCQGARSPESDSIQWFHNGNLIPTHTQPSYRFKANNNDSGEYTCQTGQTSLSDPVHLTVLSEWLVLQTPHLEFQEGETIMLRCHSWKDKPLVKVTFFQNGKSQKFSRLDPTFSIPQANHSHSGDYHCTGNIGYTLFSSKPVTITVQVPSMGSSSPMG
# T3: FcγRIIB (human, UniProt P31994 43-217, biotin-labeled)
# T3 construct: extracellular domain; Bought protein; also called CD32b
# T3 sequence (looked up): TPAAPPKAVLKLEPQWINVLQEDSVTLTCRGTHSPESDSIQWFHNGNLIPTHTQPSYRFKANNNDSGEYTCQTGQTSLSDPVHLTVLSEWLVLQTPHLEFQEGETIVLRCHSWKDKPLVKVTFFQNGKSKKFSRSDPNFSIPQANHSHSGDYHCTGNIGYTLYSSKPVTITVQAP
# Tests used:
# FcγRI = target: T4, FcγRI (human, UniProt P12314 16-292, biotin-labeled); experiment: ELISA, coated antibody, biotin-FcγR;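 for Absorbance value: antibody coated at 2 µg/mL at 100 µL per well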
# T4 construct: extracellular domain; Bought protein; also called CD64
# T4 sequence (P12314 16-292): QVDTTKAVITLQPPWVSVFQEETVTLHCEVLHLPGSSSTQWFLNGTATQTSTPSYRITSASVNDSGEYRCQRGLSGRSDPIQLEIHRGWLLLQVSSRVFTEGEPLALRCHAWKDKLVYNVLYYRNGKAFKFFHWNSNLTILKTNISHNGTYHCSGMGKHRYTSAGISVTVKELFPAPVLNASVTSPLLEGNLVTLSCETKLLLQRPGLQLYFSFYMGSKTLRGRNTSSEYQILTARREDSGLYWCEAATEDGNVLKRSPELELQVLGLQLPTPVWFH
# FcγRIIA^131H = target: T1, FcγRIIA^131H; experiment: ELISA, coated antibody, biotin-FcγR;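 for Absorbance value: antibody coated at 2 µg/mL at 100 µL per well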
# FcγRIIA^131R = target: T2, FcγRIIA^131R; experiment: ELISA, coated antibody, biotin-FcγR;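 for Absorbance value: antibody coated at 2 µg/mL at 100 µL per well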
# FcγRIIB [1] = target: T3, FcγRIIB; experiment: ELISA, coated antibody, biotin-FcγR;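 for Absorbance value: antibody coated at 2 µg/mL at 100 µL per well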
# FcγRIIIA^158F = target: T5, FcγRIIIA^158F (human, UniProt P08637 17-208, biotin-labeled); experiment: ELISA, coated antibody, biotin-FcγR;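 for Absorbance value: antibody coated at 2 µg/mL at 100 µL per well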
# T5 construct: extracellular domain; Bought protein; also called RIIIAF
# T5 sequence (P08637 17-208): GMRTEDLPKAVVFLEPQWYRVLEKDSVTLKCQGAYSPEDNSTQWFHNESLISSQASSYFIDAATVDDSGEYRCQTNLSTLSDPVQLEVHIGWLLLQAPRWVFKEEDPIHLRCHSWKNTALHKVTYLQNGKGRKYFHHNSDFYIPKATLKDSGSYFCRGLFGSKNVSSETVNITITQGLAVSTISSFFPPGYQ
# FcγRIIIA^158V = target: T6, FcγRIIIA^158V (human, UniProt P08637 17-208, biotin-labeled); experiment: ELISA, coated antibody, biotin-FcγR;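 for Absorbance value: antibody coated at 2 µg/mL at 100 µL per well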
# T6 construct: extracellular domain; Bought protein; also called RIIIAV; CD16a 158V
# T6 sequence (P08637 17-208 F176V): as the sequence (P08637 17-208) above, with F160V counted along it
# FcγRIIB [2] = target: T3, FcγRIIB; experiment: ELISA; relative affinity to FcγRIIB over that to FcγRIIA131R
Absorbance value (FcγRI) [A650],Relative binding affinity RI/G1 (FcγRI) [ratio],Absorbance value (FcγRIIA^131H) [A650],Relative binding affinity RIIAH/G1 (FcγRIIA^131H) [ratio],Absorbance value (FcγRIIA^131R) [A650],Relative binding affinity RIIAR/G1 (FcγRIIA^131R) [ratio],Absorbance value (FcγRIIB [1]) [A650],Increased factor of RIIB binding compared with wild-type IgG2 (FcγRIIB [1]) [fold],Relative binding affinity RIIB/G1 (FcγRIIB [1]) [ratio],Absorbance value (FcγRIIIA^158F) [A650],Relative binding affinity RIIIAF/G1 (FcγRIIIA^158F) [ratio],Absorbance value (FcγRIIIA^158V) [A650],Relative binding affinity RIIIAV/G1 (FcγRIIIA^158V) [ratio],RIIB/RIIAR (FcγRIIB [2]) [ratio],Binder
0.12,0.05,0.06,0.1,0.3,1.13,0.86,11.5,1.14,0.07,0.36,0.05,0.06,1.01,"anti-human OX40 IgG2 antibody Mut_25 (V234Q/V266L/S267D/H268D/E269D/P271Q) (antibody, Substitutions in Eu numbering; entries include an unstated signal peptide) heavy: QVQLQESGPGLVKPSGTLSLTCAVSGGSISSSIWWSWVRQPPGKGLEWIGEIHHSGNTNCNPSLKSRVTISIDKSKNQFSLKLTSVTAADTAVYYCARAGTGTTLDYWGQGTLVTVSSASTKGPSVFPLAPCSRSTSESTAALGCLVKDYFPEPVTVSWNSGALTSGVHTFPAVLQSSGLYSLSSVVTVPSSNFGTQTYTCNVDHKPSNTKVDKTVERKCCVECPPCPAPPQAGPSVFLFPPKPKDTLMISRTPEVTCVVVDLDDDDQEVQFNWYVDGVEVHNAKTKPREEQFNSTFRVVSVLTVVHQDWLNGKEYKCKVSNKGLPAPIEKTISKTKGQPREPQVYTLPPSREEMTKNQVSLTCLVKGFYPSDIAVEWESNGQPENNYKTTPPMLDSDGSFFLYSKLTVDKSRWQQGNVFSCSVMHEALHNHYTQKSLSLSPGK light: EIVLTQSPGTLSLSPGERATLSCRASQSVSGDYLAWYQQKLGQAPRLLIYGASIRATGIPDRFSGSGSGTDFTLTISKLEPEDFAVYYCQQYGSSPLTFGGGTKVEIKRTVAAPSVFIFPPSDEQLKSGTASVVCLLNNFYPREAKVQWKVDNALQSGNSQESVTEQDSKDSTYSLSSTLTLSKADYEKHKVYACEVTHQGLSSPVTKSFNRGEC"
0.14,0.05,0.52,0.9,0.34,1.3,1.07,14.3,1.42,0.08,0.44,0.07,0.07,1.09,"anti-human OX40 IgG2 antibody Mut_8 (V266L/L328W) (antibody, name in EU numbering, Substitutions in Eu numbering; entries include an unstated signal peptide) heavy: QVQLQESGPGLVKPSGTLSLTCAVSGGSISSSIWWSWVRQPPGKGLEWIGEIHHSGNTNCNPSLKSRVTISIDKSKNQFSLKLTSVTAADTAVYYCARAGTGTTLDYWGQGTLVTVSSASTKGPSVFPLAPCSRSTSESTAALGCLVKDYFPEPVTVSWNSGALTSGVHTFPAVLQSSGLYSLSSVVTVPSSNFGTQTYTCNVDHKPSNTKVDKTVERKCCVECPPCPAPPVAGPSVFLFPPKPKDTLMISRTPEVTCVVVDLSHEDPEVQFNWYVDGVEVHNAKTKPREEQFNSTFRVVSVLTVVHQDWLNGKEYKCKVSNKGWPAPIEKTISKTKGQPREPQVYTLPPSREEMTKNQVSLTCLVKGFYPSDIAVEWESNGQPENNYKTTPPMLDSDGSFFLYSKLTVDKSRWQQGNVFSCSVMHEALHNHYTQKSLSLSPGK light: EIVLTQSPGTLSLSPGERATLSCRASQSVSGDYLAWYQQKLGQAPRLLIYGASIRATGIPDRFSGSGSGTDFTLTISKLEPEDFAVYYCQQYGSSPLTFGGGTKVEIKRTVAAPSVFIFPPSDEQLKSGTASVVCLLNNFYPREAKVQWKVDNALQSGNSQESVTEQDSKDSTYSLSSTLTLSKADYEKHKVYACEVTHQGLSSPVTKSFNRGEC"
0.18,0.07,0.48,0.84,0.28,1.06,0.7,9.29,0.92,0.09,0.49,0.1,0.11,0.87,"anti-human OX40 IgG2 antibody Mut_27 (V266L/S267E/H268S/P271V) (antibody, name in EU numbering, Substitutions in Eu numbering; entries include an unstated signal peptide) heavy: QVQLQESGPGLVKPSGTLSLTCAVSGGSISSSIWWSWVRQPPGKGLEWIGEIHHSGNTNCNPSLKSRVTISIDKSKNQFSLKLTSVTAADTAVYYCARAGTGTTLDYWGQGTLVTVSSASTKGPSVFPLAPCSRSTSESTAALGCLVKDYFPEPVTVSWNSGALTSGVHTFPAVLQSSGLYSLSSVVTVPSSNFGTQTYTCNVDHKPSNTKVDKTVERKCCVECPPCPAPPVAGPSVFLFPPKPKDTLMISRTPEVTCVVVDLESEDVEVQFNWYVDGVEVHNAKTKPREEQFNSTFRVVSVLTVVHQDWLNGKEYKCKVSNKGLPAPIEKTISKTKGQPREPQVYTLPPSREEMTKNQVSLTCLVKGFYPSDIAVEWESNGQPENNYKTTPPMLDSDGSFFLYSKLTVDKSRWQQGNVFSCSVMHEALHNHYTQKSLSLSPGK light: EIVLTQSPGTLSLSPGERATLSCRASQSVSGDYLAWYQQKLGQAPRLLIYGASIRATGIPDRFSGSGSGTDFTLTISKLEPEDFAVYYCQQYGSSPLTFGGGTKVEIKRTVAAPSVFIFPPSDEQLKSGTASVVCLLNNFYPREAKVQWKVDNALQSGNSQESVTEQDSKDSTYSLSSTLTLSKADYEKHKVYACEVTHQGLSSPVTKSFNRGEC"
0.12,0.05,0.18,0.32,0.26,1.01,0.8,10.7,1.06,0.06,0.33,0.06,0.07,1.05,"anti-human OX40 IgG2 antibody Mut_30 (V234Q/V266L/S267E/H268S/E269V) (antibody, Substitutions in Eu numbering; entries include an unstated signal peptide) heavy: QVQLQESGPGLVKPSGTLSLTCAVSGGSISSSIWWSWVRQPPGKGLEWIGEIHHSGNTNCNPSLKSRVTISIDKSKNQFSLKLTSVTAADTAVYYCARAGTGTTLDYWGQGTLVTVSSASTKGPSVFPLAPCSRSTSESTAALGCLVKDYFPEPVTVSWNSGALTSGVHTFPAVLQSSGLYSLSSVVTVPSSNFGTQTYTCNVDHKPSNTKVDKTVERKCCVECPPCPAPPQAGPSVFLFPPKPKDTLMISRTPEVTCVVVDLESVDPEVQFNWYVDGVEVHNAKTKPREEQFNSTFRVVSVLTVVHQDWLNGKEYKCKVSNKGLPAPIEKTISKTKGQPREPQVYTLPPSREEMTKNQVSLTCLVKGFYPSDIAVEWESNGQPENNYKTTPPMLDSDGSFFLYSKLTVDKSRWQQGNVFSCSVMHEALHNHYTQKSLSLSPGK light: EIVLTQSPGTLSLSPGERATLSCRASQSVSGDYLAWYQQKLGQAPRLLIYGASIRATGIPDRFSGSGSGTDFTLTISKLEPEDFAVYYCQQYGSSPLTFGGGTKVEIKRTVAAPSVFIFPPSDEQLKSGTASVVCLLNNFYPREAKVQWKVDNALQSGNSQESVTEQDSKDSTYSLSSTLTLSKADYEKHKVYACEVTHQGLSSPVTKSFNRGEC"
0.13,0.05,0.14,0.24,0.35,1.35,0.88,11.8,1.17,0.08,0.44,0.08,0.08,0.87,"anti-human OX40 IgG2 antibody Mut_28 (P233G/S267E/S298G) (antibody, Substitutions in Eu numbering; entries include an unstated signal peptide) heavy: QVQLQESGPGLVKPSGTLSLTCAVSGGSISSSIWWSWVRQPPGKGLEWIGEIHHSGNTNCNPSLKSRVTISIDKSKNQFSLKLTSVTAADTAVYYCARAGTGTTLDYWGQGTLVTVSSASTKGPSVFPLAPCSRSTSESTAALGCLVKDYFPEPVTVSWNSGALTSGVHTFPAVLQSSGLYSLSSVVTVPSSNFGTQTYTCNVDHKPSNTKVDKTVERKCCVECPPCPAPGVAGPSVFLFPPKPKDTLMISRTPEVTCVVVDVEHEDPEVQFNWYVDGVEVHNAKTKPREEQFNGTFRVVSVLTVVHQDWLNGKEYKCKVSNKGLPAPIEKTISKTKGQPREPQVYTLPPSREEMTKNQVSLTCLVKGFYPSDIAVEWESNGQPENNYKTTPPMLDSDGSFFLYSKLTVDKSRWQQGNVFSCSVMHEALHNHYTQKSLSLSPGK light: EIVLTQSPGTLSLSPGERATLSCRASQSVSGDYLAWYQQKLGQAPRLLIYGASIRATGIPDRFSGSGSGTDFTLTISKLEPEDFAVYYCQQYGSSPLTFGGGTKVEIKRTVAAPSVFIFPPSDEQLKSGTASVVCLLNNFYPREAKVQWKVDNALQSGNSQESVTEQDSKDSTYSLSSTLTLSKADYEKHKVYACEVTHQGLSSPVTKSFNRGEC"
